Changes are numbered by the printed parent chain. Read-outs that look alike come from different tables or passages of the source.

The target of data set [1] is T1, YvoA wild-type (Bacillus subtilis, UniProt O34817 1-243).
T1 sequence: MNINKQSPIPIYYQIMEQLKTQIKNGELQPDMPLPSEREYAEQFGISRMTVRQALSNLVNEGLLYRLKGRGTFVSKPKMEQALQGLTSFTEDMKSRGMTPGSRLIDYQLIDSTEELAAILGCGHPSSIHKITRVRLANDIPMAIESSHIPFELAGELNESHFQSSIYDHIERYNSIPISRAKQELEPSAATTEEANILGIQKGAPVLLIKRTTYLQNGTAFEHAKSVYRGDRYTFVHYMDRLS
Kind of data set: ITC. On the technique in general: ITC needs no label: the signal is the heat of the interaction.

The target in another data set is T2, YvoA-E61C-L242C (Bacillus subtilis, UniProt O34817 1-243, E61C;L242C).
T2 sequence: T1 sequence with E61C, L242C
Kind of data set: analytical gel filtration.

Data set [2] deals with T1, YvoA wild-type. Description: ITC. This is another data set of the same source.
Another data set addresses T3, YvoA-K24C-G97C (Bacillus subtilis, UniProt O34817 1-243, K24C;G97C).
T3 sequence: T1 sequence with K24C, G97C
Kind of data set: analytical gel filtration.

B1: YvoA operator dsDNA (18mer) (dsDNA)
DNA 1: ATTGGTATAGATCACTAG
DNA 2: CTAGTGATCTATACCAAT
As a reminder, the Kd is the concentration at which binding is half-saturated. Take B1: the Kd was 131 nM with YvoA wild-type [1] and 2.9 nM in the data set with YvoA wild-type [2]. Further, the binding result in the data set with YvoA-E61C-L242C and with YvoA-K24C-G97C was “binds” in each case.

The values are drawn from paper PMC2853113.
